Results from the supplement of paper PMC9170038.

System: K4 kissing-loop RNA reporter
Assay: apparent KD of K4 kissing-loop reporter; higher = weaker reporter binding
Conditions: Eterna round: R107
Procedure: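 RNA-MaP round R107: designed RNA switches with theophylline, tryptophan, arginine or FMN aptamers are transcribed on-chip within common flanks. They are titrated with a labelled K4 kissing-loop RNA reporter in RNA-MaP buffer (100 mM Tris pH 7.5, 80 mM KCl, 4 mM MgCl2), without ligand or with the indicated ligand. Median apparent KD per design.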

[1] = input ligand: theophylline 20 uM
[2] = input ligand: tryptophan 2.4 mM
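Also: bound reporter read as fluorescence of individual clusters on recovered sequencing chips by microscopy, with normalized cluster intensities fitted with a binding model.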

Sequence	apparent KD of K4 kissing-loop reporter (input ligand: FMN 200 uM) [nM]	apparent KD of K4 kissing-loop reporter (input ligand: arginine 13.2 mM) [nM]	apparent KD of K4 kissing-loop reporter (input ligand: none) [nM]	apparent KD of K4 kissing-loop reporter [1] [nM]	apparent KD of K4 kissing-loop reporter [2] [nM]
GGUAUCUAUACAGAUACCAGUCGUACGGCUGCAUUACAGGUUAGUGAUGUUAACCUGUACGACCCUUGGCAGCUGUAUAGUAGUA [#14 K4 Theophylline B Exclusion]	115	94	115	197	104
GGUCCACGCCAUGCCAGUGAUGUUGGUAAGCGAGGACCGGUACGGCCGCCACUCGUUCAAUACCGUAUCGCCCAUAACCUGGAGA [Oneseror]	113	89.1	104	96.5	118
GGUGAUGAGCACGAUACCAGCCUCGGAGCCAGUGAUGUUGGCCCAGUUUAGAAUAAGACAGGCCCUUGGCAGCGUGACGAUGGCU [Inorusre]	885	980	1020	687	981
GUAGCACUUGACAGUGAUGUUGUCAAGGGCAAGGAUAUCACCUCAGUGAGAAGGUGUCCUUGAUAACUGCUACGGGAAUAUCCCA [Omei KL FMN A Exc D v7]	603	136	152	156	168
GUAGGAUGAGGAGGAGGAUGAAUUACUGAAGGAGCGCAAAGAAAUGCAGGUAGGUCGCGGUAAAGAAGUAUAGUGAUGUUAUAUC [#08 K4 Arginine A Same State]	588	416	463	700	598
GUAUCGCUAGGAGGAUAUUUCAAUUUGACUCUUUGAGUUAUUACGGAGUGAUGUUCCGAUUUACGGAAAGAAGGCCUAGUGAUAC [FMN B 12]	140	170	202	172	179
GUCCCGAGUGAUGUUCGGGUCGUUCGGGAAGGAGCGCCCGCAAGGGCAGGUAGGUCGCCCGGAUCUCUCAGGUAACUGAGAGACC [#2 Same State - Arginine A Attempt #28 (HarryS)]	553	319	431	408	416
GUCUCGAGUGAUGUUCGGGUCGAUUGGGAAGGAGCGCCCGGAAGGGCAGGUAGGUCGCCCGGGCCGCGCGGGAAACCGCGCGUCC [#2 Same State - Arginine A Attempt #8 (HarryS)]	208	110	194	140	154
GUCUGCUGUAUCGAUACCAGAAGUGGGCAGUGAUGUUGUUCGGGUACAUCGCGUCUCGAGUUCCCUUGGCAGCGAUUGUACGAAU [theeternabot_exclusion_KL_Theo_B_12]	533	571	694	835	524
GUCUGUGUACUAGGAUAUGGUUGCAGGCAGUCAGGUCGCCUUUUCGGCGGCCAGUGAUGUUGGUGGCCAGAAGGAGUACGUGAUG [Raorin]	776	659	731	720	699
GUGAUAUCGCAAGGAUAUCCAAUUUCUGCGGAUAAGUGAUGUUUGGCGCCGCCUCAGUUAUGGCAAGGAGAAGGUGCGGCCUAGC [theeternabot_sameState_KL_FMN_B_28]	473	286	428	366	383
GUGCGGUGGAGGCUACCGCUACUCUGAGAAGGAGCGCAGAUGACUGCAGGUAGGUCGCUUAGAGCUUGCAGUGAUGUUGCAAGUU [Teorzaqu]	166	157	188	132	140
GUGGUACAGGCGGCCGCCACUAGUGAUGUUAGUGAUAGAAGAUAUAGUAAAUAUCGGCAUUUAGAUAGGACCGGGCCUGGUGGUG [xxfxcmullin]	353	245	305	309	267
GUGGUUUACGUAGGAUAUCGAUGAUGAGUAAAUGGAGUGAUGUUCCGAGAUUGAAUAUGAGAUGAGCGAGAAGGGCGGUUUAUGC [FMN B Same State; Euporia Solution 2]	32.8	36.9	31.4	37.3	29.5
GUUAAAUAAAUGGGCAUAGUGAUGUUGUGUCGAGGACCGGUACGGCCGCCACUCGAGCUAGCAUGCCGGUCAUUAUGGGUAGUUU [theeternabot_exclusion_KL_Trp_A_46]	112	118	142	132	219
GUUACGCAUGGAAGGAGCGCAGGCUCAACAAAUAGCUCAGUGAUGUUGAGCAUAUUAAUUCUGCAGGUAGGUCGCCAUGUGUAAC [Ex Arginine B K4 25]	531	491	551	536	508
GUUACGCAUGGAAGGAGCGCGAAUUUAAUUAGUGAGUGAUGUUCACAUAAAAUGUAUAAUACGCAGGUAGGUCGCCAUGUGUAAC [whbob_Ex_Arginine_B_2th163]	81.9	84	77.2	85.7	81.3
